According to patent publication US20050282216A1:

Legend:
[1] = target: hIL-13Rα and hIL-4R coexpressed on cells (reconstituted high-affinity receptor) (human) (UniProt P24394); assay: Scatchard analysis on CHO-hIL4R cells transfected with hIL-13Rα cDNA, high-affinity site
human IL-13Rβ (human) [2] = target: human IL-13Rβ (human) (UniProt Q14627); assay: Scatchard analysis of saturation binding on COS-7 cells transfected with IL-13Rβ cDNA
human IL-13Rα (human) [3] = target: human IL-13Rα (human) (UniProt P78552); assay: radioligand binding on CHO cells; the basis of this value is not explained
human IL-13Rβ (human) [4] = target: human IL-13Rβ (human) (UniProt Q14627); assay: Scatchard analysis of saturation binding of 125I-labelled IL-13 on Caki-1 cells
human IL-13Rα (human) [5] = target: human IL-13Rα (human) (UniProt P78552); assay: Scatchard analysis on CHO-hIL4R cells transfected with hIL-13Rα cDNA, low-affinity site (nonassociated IL-13Rα chains)
human IL-13Rα (human) [6] = target: human IL-13Rα (human) (UniProt P78552); assay: Scatchard analysis of saturation binding on CHO cells transfected with IL-13Rα cDNA

Chain of UniProt P78552 (P78552 22-427 limits assumed, form in doubt): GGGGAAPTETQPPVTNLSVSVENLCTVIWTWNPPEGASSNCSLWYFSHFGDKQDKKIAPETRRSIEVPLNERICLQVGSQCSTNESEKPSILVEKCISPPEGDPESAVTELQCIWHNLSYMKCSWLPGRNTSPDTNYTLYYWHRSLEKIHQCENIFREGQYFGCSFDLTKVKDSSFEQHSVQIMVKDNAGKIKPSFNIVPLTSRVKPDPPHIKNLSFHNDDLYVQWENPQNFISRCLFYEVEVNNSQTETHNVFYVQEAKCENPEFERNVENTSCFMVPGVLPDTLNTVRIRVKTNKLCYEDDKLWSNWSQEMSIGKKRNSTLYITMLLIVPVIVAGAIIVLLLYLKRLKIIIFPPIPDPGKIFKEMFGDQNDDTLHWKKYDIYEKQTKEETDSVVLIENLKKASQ
Chain of UniProt Q14627 (Q14627 27-380 limits assumed, form in doubt): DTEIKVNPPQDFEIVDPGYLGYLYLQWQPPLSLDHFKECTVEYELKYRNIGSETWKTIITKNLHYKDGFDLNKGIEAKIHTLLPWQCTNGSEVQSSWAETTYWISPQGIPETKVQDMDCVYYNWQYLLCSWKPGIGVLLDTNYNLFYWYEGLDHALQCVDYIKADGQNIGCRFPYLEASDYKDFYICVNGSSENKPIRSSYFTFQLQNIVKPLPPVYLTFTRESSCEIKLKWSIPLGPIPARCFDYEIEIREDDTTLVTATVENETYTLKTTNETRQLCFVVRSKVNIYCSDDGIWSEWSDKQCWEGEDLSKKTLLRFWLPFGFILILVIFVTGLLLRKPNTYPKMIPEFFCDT

A Kd [1] of 0.023 nM, a Kd (human IL-13Rβ (human) [2]) of 0.25 nM and a Kd (human IL-13Rα (human) [3]) of 7.5 nM were found for “[125I][Phe43]-IL-13-GlyTyrGlyTyr (from UniProt P35225 35-146) (ligand)” in this work. For the same substance, the Kd (human IL-13Rβ (human) [4]) was 0.446 nM, the Kd (human IL-13Rα (human) [5]) was 4.2 nM and the Kd (human IL-13Rα (human) [6]) was 4.5 nM.
